Laboratory results from PMC11826994.

Legend:
[1] = target: full-length histone H4 with L-isoaspartate at position 24 (H4isoD24), semisynthetic (UniProt P62805)
[2] = target: full-length histone H4 with the canonical Asp at position 24 (H4D24), semisynthetic (UniProt P62805)

k (1,obs), rate of H4K20 monomethylation by Set8 on 12-mer nucleosome arrays containing H4isoD24 (with Suv4-20h1 and AdoMet; HRMS) [1] [min^–1] | k (1,obs), rate of H4K20 monomethylation by Set8 on 12-mer nucleosome arrays containing H4D24 (with Suv4-20h1 and AdoMet; HRMS) [2] [min^–1] | k (2,obs), rate of H4K20me1 to H4K20me2 methylation by Suv4-20h1 on 12-mer nucleosome arrays containing H4isoD24 (with Set8 and AdoMet; HRMS) [1] [min^–1] | k (2,obs), rate of H4K20me1 to H4K20me2 methylation by Suv4-20h1 on 12-mer nucleosome arrays containing H4D24 (with Set8 and AdoMet; HRMS) [2] [min^–1] | Substance
0.0016 | 0.0059 | – | – | methyltransferase Set8 (from UniProt Q9NQR1 1-393) (enzyme)
– | – | 0.002 | 0.033 | methyltransferase Suv4-20h1 (from UniProt Q4FZB7 1-885) (enzyme)
